From US20120288507A1 (Amgen, published 2012)

T1: biotinylated recombinant human WISE (human, UniProt Q6X4U4 24-206, biotinylated (site not stated))
T1 construct: Same protein as m1, biotinylated; Used in the AlphaScreen with LRP6, in phage panning and on the Octet streptavidin biosensors; also called biotinylated huWise; biotinylated human WISE
T1 sequence: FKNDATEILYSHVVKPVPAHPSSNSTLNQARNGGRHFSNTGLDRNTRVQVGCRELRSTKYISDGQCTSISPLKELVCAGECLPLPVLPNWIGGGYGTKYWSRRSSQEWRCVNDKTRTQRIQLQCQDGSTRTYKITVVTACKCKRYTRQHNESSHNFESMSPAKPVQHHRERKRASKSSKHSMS

T2: human WISE (human, UniProt Q6X4U4 24-206)
T2 construct: Recombinant protein secreted from mammalian cells; also called hWISE; huWISE
T2 sequence: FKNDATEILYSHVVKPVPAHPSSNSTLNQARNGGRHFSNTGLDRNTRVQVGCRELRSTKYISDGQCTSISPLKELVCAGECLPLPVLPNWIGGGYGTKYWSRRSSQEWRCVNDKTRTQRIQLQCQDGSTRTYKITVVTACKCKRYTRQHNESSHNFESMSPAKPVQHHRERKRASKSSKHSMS


Key:
[1] = target: T1, biotinylated recombinant human WISE; test: Octet QK, crude conditioned medium, streptavidin biosensors with biotinylated human WISE
Method: Affinity maturation was performed on D14 IgG2 in order to improve the inhibitory activity. Every residue in all CDRs of heavy chain (31 positions) and light chain (29 positions) was mutated by randomized mutagenesis. Seven heavy chain mutations in 5 positions and ten light chain mutations in 6 positions that improved the binding to human WISE were identified by affinity measurement on Octet QK (ForteBio) using crude condition medium samples and streptavidin Biosensors coated with biotinylated human WISE. L34, L36, H66 and H127 were four top single-residue mutants. Beneficial heavy chain mutation and light chain mutation were paired in matrix by transient transfection in 293 6E cells to yield further improved double mutants (DM, one mutation in heavy chain and one in light chain). Ten DM mutants were selected. Two best heavy chain mutations (H66 and H127) were combined by overlapping PCR. The resulted heavy chain with double mutations was paired with L34 or L36 to yield two triple mutants (TM1 and TM2).

human WISE = target: T2, human WISE; test: murine hybridoma antibodies; assay not given

binding result [1] | binding result (human WISE) | Binder
binds | – | D14 IgG2 single-residue mutant L34 (antibody, V domains shown, L34 is a mutant label, not a residue number; Tested as crude conditioned medium; also called L34(LC CDR1-7G)) VH: EVQLLESGGGLVQPGGSLRLSCAASGFTFSLYTMQWVRQAPGKGLEWVSGIGSSGGGTSYADSVKGRFTISRDNSKNTLYLQMNSLRAEDTAVYYCARGVSSWFFEYWGQGTLVTVSS VL: QYELTQPPSVAVSPGKTASITCAGDELGGKYAAWYQQKPGQAPVLVVYDDSDRPSGIPERFSGSNSGNTATLTISRVEAGDEADYYCQVWDRSSYHVVFGGGTKLTVLG
binds | – | D14 IgG2 single-residue mutant H127 (antibody, V domains shown, H127 is a mutant label, not a residue number; Tested as crude conditioned medium; also called H127(HC CDR3-4G)) VH: EVQLLESGGGLVQPGGSLRLSCAASGFTFSLYTMQWVRQAPGKGLEWVSGIGSSGGGTSYADSVKGRFTISRDNSKNTLYLQMNSLRAEDTAVYYCARGVSGWFFEYWGQGTLVTVSS VL: QYELTQPPSVAVSPGKTASITCAGDELGNKYAAWYQQKPGQAPVLVVYDDSDRPSGIPERFSGSNSGNTATLTISRVEAGDEADYYCQVWDRSSYHVVFGGGTKLTVLG
binds | – | D14 IgG2 single-residue mutant H66 (antibody, V domains shown, H66 is a mutant label, not a residue number; Tested as crude conditioned medium; also called H66(HC CDR2-8P)) VH: EVQLLESGGGLVQPGGSLRLSCAASGFTFSLYTMQWVRQAPGKGLEWVSGIGSSGGPTSYADSVKGRFTISRDNSKNTLYLQMNSLRAEDTAVYYCARGVSSWFFEYWGQGTLVTVSS VL: QYELTQPPSVAVSPGKTASITCAGDELGNKYAAWYQQKPGQAPVLVVYDDSDRPSGIPERFSGSNSGNTATLTISRVEAGDEADYYCQVWDRSSYHVVFGGGTKLTVLG
binds | – | D14-L36 (antibody, human IgG2, lambda, V domains shown, Tested as crude conditioned medium; also called L36(LC CDR1-7S); LC-CDR1-7 N->S) VH: EVQLLESGGGLVQPGGSLRLSCAASGFTFSLYTMQWVRQAPGKGLEWVSGIGSSGGGTSYADSVKGRFTISRDNSKNTLYLQMNSLRAEDTAVYYCARGVSSWFFEYWGQGTLVTVSS VL: QYELTQPPSVAVSPGKTASITCAGDELGSKYAAWYQQKPGQAPVLVVYDDSDRPSGIPERFSGSNSGNTATLTISRVEAGDEADYYCQVWDRSSYHVVFGGGTKLTVLG
– | binds | Ab-AD (antibody, V domains shown, Murine monoclonal antibody from hybridoma) VH: EVQLQQSGTVLARPGASVKMSCKASGYTFTSYWMHWVKQRPGQGLEWIVAIYPGNSDTNYNQKFKGKAKLTAVTSTSTAYMELNSLTNEDSAVYYCVRGFITAPYFDYWGQGTTLTVSS VL: DIQMTQSPASLAASVGESITITCQASENIYFSLAWYQQKQGRSPQLLIYHAKSLEDGVPSRFSGSGSGTQYSMKINSMQPEDTATYFCKQAYDHPFTFGTGTKLEMK
